Measurements: article PMC10663602, “The structure of the teleost Immunoglobulin M core provides insights on polymeric antibody evolution, assembly, and function” (Nature Communications, 2023)

B1: full-length hFcµ expressed without JC (domain or fragment)
chain: TAIRVFAIPPSFASIFLTKSTKLTCLVTDLTTYDSVTISWTRQNGEAVKTHTNISESHPNATFSAVGEASICEDDWNSGERFTCTVTHTDLPSPLKQTISRPKGVALHRPDVYLLPPAREQLNLRESATITCLVTGFSPADVFVQWMQRGQPLSPEKYVTSAPMPEPQAPGRYFAHSILTVSEEEWNTGETYTCVVAHEALPNRVTERTVDKSTGKPTLYNVSLVMSDTAGTCY
modifications: N-glycosylated, disulfide-linked hexamer of Fc dimers without J chain. Secretory form with tailpiece. N-terminus taken at TAIRVF (T343 in the paper's numbering), as in the printed chimeras; entity …
B2: hFcµ-tFcµ-chi4 (other)
chain: TAIRVFAIPPSFASIFLTKSTKLTCLVTDLTTYDSVTISWTRQNGEAVKTHTNISESHPNATFSAVGEASICEDDWNSGERFTCTVTHTDLPSPLKQTISRPKGVALHRPDVYLLPPAREQLNLRESATITCLVTGFSPADVFVQWMQRGQPLSPEKYVTSAPMPEPQAPGRYFAHSILTVSEEEWNTGETYTCVVAHEALPNRIIMRTIDRTSNQPNLVNLSLNVPQRCMAQ
modifications: N-glycosylated; probable tetramer (P1), also a monomer fraction (P2) / N-glycosylated; probable tetramer (P1), also a monomer fraction (P2)

What was measured:
[1] = molecular target: full-length hFcµ expressed without JC (human, UniProt P01871 106-433); assay: SEC-MALS; Superose 6 Increase 10/300, TBS buffer, 0.5 ml/min, 25 °C; 100 uL of protein at approximately 2 g/L; pIg peaks isolated from mIg by SEC before the analysis; conditions: both partners purified
[2] = molecular target: T1, hFcµ-tFcµ-chi4 (human | Oncorhynchus mykiss (rainbow …)); assay: as above; conditions: both partners purified
T1 chain: B2 chain

full-length hFcµ expressed without JC, sequence (P01871 106-433): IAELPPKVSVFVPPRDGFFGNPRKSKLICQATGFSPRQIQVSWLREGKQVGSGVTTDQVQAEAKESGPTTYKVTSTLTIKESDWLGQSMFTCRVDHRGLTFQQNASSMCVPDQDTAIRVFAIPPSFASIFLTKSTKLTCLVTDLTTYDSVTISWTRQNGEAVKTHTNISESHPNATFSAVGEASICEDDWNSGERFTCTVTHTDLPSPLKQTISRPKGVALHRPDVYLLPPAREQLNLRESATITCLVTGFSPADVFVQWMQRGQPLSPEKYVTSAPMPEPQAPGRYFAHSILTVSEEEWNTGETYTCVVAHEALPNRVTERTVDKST

Binder | stoichiometry N [1] | stoichiometry N [2]
B1 | 6 | 
B2 |  | ~4
